Measured values: patent US8362216B2, “Method of detection using antibodies that specifically bind hedgehog-derived polypeptides” (The Johns Hopkins University School of Medicine, priority 1994, dated 2013)
Blank lines part the entries; values can stand above or below the molecule they belong to.

Columns and labels:
[1] = target: T1, in-vitro translated Hh protein (Drosophila melanogaster, UniProt Q02936); assay: Proteinase inhibitor studies on auto-proteolysis of in vitro translated Hh protein; type: biochemical; settings: inhibitor added to translation reaction
T1 construct: The full length form of the hh protein (F) migrates with a mobility corresponding to a relative molecular mass of 46 kD; made in house; host or cells: cell-free: TNT coupled transcription-translation system (Promega)
T1 sequence (Q02936 1-471): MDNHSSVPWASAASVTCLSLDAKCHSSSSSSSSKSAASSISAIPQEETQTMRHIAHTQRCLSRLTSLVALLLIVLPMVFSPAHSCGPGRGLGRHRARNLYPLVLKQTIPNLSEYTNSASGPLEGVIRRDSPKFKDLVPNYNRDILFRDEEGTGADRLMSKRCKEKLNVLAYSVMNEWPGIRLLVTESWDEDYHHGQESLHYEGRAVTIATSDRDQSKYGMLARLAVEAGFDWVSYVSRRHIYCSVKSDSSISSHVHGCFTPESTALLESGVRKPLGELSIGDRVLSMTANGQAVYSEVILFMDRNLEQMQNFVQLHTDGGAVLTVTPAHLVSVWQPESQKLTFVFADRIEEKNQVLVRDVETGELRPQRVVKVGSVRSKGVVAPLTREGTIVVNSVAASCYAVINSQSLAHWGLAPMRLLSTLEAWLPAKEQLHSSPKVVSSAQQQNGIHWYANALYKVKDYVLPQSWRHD
Description: In some cases the effectiveness of an inhibitor was assayed by determining if addition of an inhibitor to a completed translation reaction will inhibit the self-processing that normally continues to occur.

[2] = Solubility and proteolytic stability of purified Hh carboxy-terminal fragments; type: physicochemical; settings: purified protein
Description: Protein expression and purification: Drosophila melanogaster Hh protein in which most of the amino-terminai signaling domain and signal sequence have been replaced by a hexa-histidine tag (His6Hh-C25) was expressed as previously described (Porter et al., 1995). SeMet His6Hh-C25 was prepared by expression in E. coli strain B834 (DE3) pLysS, a methionine auxotroph, and growth in minimal media as previously described (Leahy et al., 1994). This His6-taggcd protein was purified on a Ni^++-NTA agarose column and autocleavage stimulated by addition of 50 mM DTT. After removal of the DTT by dialysis, the cleaved protein was passed over a Ni^++-NTA agarose column and the Hh carboxy-terminal domain, Hh-C25, collected in the column run through. Hh-C25 was subjected to limited proteolysis by overnight incubation with 1:500 (w:w) subtilisin (Boehringer Mannheim) at 4° C. A protease-stable fragment of approximately 17 kDa, Hh-C17, was identified by SDS-PAGE and purified by anion-exchange chromatography utilizing a Mono-Q column (Pharmacia). The amino- and carboxy-terminal residues of Hh-C17 were determined to be Cys-258 and Ser-408, respectively, by mass spectral analysis of cyanogen bromide-cleaved fragments. Mass spectral analysis was performed as previously described (Porter et al., 1996a).
Drosophila melanogaster Hh in which the signal sequence and most of the amino-terminal signaling domain have been replaced by a hexahistidine tag was expressed in E. coli as previously described (Porter et al., 1995). Following purification with Ni^++-NTA agarose, this protein cleaves itself in vitro in the presence of either DTT or cholesterol to liberate the 25 kDa Hh-C fragment (Hh-C25, residues Cys-258 to Asp-471). […] All residues absolutely conserved in Hh-C homologues (Porter et al., 1996a), including the nematode sequences, are contained in Hh-C17. To determine if Hh-C17 retained autoprocessing activity, a mutant version of His-tagged Hh-C containing a termination codon at residue position 409 (His6Hh-C17) was expressed and assayed for autocleavage in the presence of DTT and cholesterol.

[3] = system: neural and cement gland marker gene expression; assay: Xenopus animal (blastula) cap explants / Keller sandwiches from RNA-injected embryos, RT-PCR of marker genes; type: cell-based
Description: cDNAs encoding full-length Xenopus hedgehogs, or encoding amino terminal or carboxy terminal domains linked to secretory leader sequences were transcribed in vitro to yield translatable messenger RNA. The synthetic messenger RNAs, and control mRNAs, were microinjected into the animal poles of cleavage stage Xenopus embryos, which were allowed to develop to the blastula stage, at which time the animal cap explants were prepared from the upper one fourth of the embryo. These blastula cap explants were then cultured in vitro in physiological saline in the presence or absence of the transforming growth factor beta family member, recombinant human activin A. All explants were allowed to develop until control embryos had grown to neurula stage, or to tadpole stage. Importantly, blastula caps left untreated differentiate from ectoderm into atypical epidermis. Blastula caps treated with activin differentiate into mesodermal and neural cell types. Thus, the question was whether hedgehog, or its proteolytic derivatives, would change the differentiation of cells away from becoming epidermis, and into another cell type. A second question was whether hedgehog can work with activin to alter the normal response of the tissue to either factor by itself.
Explants were then extracted to yield mRNA by methods commonly used by those of skill in the art, which was used as template with reverse transcriptase to yield cDNA. The cDNA was then used as template with various sets of primers for PCR for specific genes, reverse-trahscriptase-polymerase chain reaction, or RT-PCR. […] Thus, the darker bands correspond to a greater level of the specific mRNA.
(A) Isolation of dorsal explants from injected embryos for the preparation of Keller sandwiches (Keller and Danilchik, 1988; Doniach, et al, 1992; redrawn from Doniach, 1993). (B) Keller sandwiches were made from uninjected (lanes 1 and 2) and X-bhh-injected (lanes 3 and 4) embroys, total RNA was isolated when control embryos reached stage 20, and RT-PCR was used to analyze the expression of XAG-1 and neural markers. XAG-1 is a cement gland marker, XANF-2 is an anterior pituitary marker, Otx-A is a forebrain marker, En-2 demarcates the midbrain-hindbrain boundary, Krox-20 marks rhombomeres 3 and 5 of the hindbrain and X/Hbox-6 is a spinal cord marker. N-CAM is a general neural marker whose expression is not restricted along the anteroposterior axis. […] Note that expression of XAG-1 and anterior neural markers is stimulated by X-bhh treatment, whereas expression of posterior neural markers is suppressed.

auto-proteolysis = assay: In vitro translation of wild-type and mutant Hh proteins (mapping of auto-proteolysis); type: biochemical, Drosophila; zebrafish

Inhibition of auto-proteolysis of in-vitro translated Hh protein [1]: do not block
Molecule: a, anti-trypsin: proteinase inhibitor, probably α1-antitrypsin

Molecule: CC(=O)N[C@@H](CC(C)C)C(=O)N[C@@H](CC(C)C)C(=O)N[C@H](C=O)CCCNC(=N)N [leupeptin]
Inhibition of auto-proteolysis of in-vitro translated Hh protein [1]: do not block

Inhibition of auto-proteolysis of in-vitro translated Hh protein [1]: do not block
Molecule: CC(C)C[C@H](NC(=O)[C@H]1O[C@@H]1C(=O)O)C(=O)NCCCCN=C(N)N [E-64]

Molecule: Hh-C17: ~17 kDa subtilisin-stable fragment of Hh-C25, residues Cys-258 to Ser-408
Solubility [2]: improved solubility
Stability to proteolysis [2]: protease-stable

Molecule: prolactin [reference compound]
Induction of pituitary gene XANF1B [3]: does not lead to this elevated level of pituitary gene

B1: H270A: zebrafish shh protein with H270A mutation (protein, UniProt Q92008 24-418, looked up, variant H270A)
Sonic hedgehog protein: CGPGRGYGRRRHPKKLTPLAYKQFIPNVAEKTLGASGRYEGKITRNSERFKELTPNYNPDIIFKDEENTGADRLMTQRCKDKLNSLAISVMNHWPGVKLRVTEGWDEDGHHFEESLHYEGRAVDITTSDRDKSKYGTLSRLAVEAGFDWVYYESKAHIHCSVKAENSVAAKSGGCFPGSALVSLQDGGQKAVKDLNPGDKVLAADSAGNLVFSDFIMFTDRDSTTRRVFYVIETQEPVEKITLTAAALLFVLDNSTEDLHTMTAAYASSVRAGQKVMVVDDSGQLKSVIVQRIYTEEQRGSFAPVTAHGTIVVDRILASCYAVIEDQGLAHLAFAPARLYYYVSSFLFPQNSSSRSNATLQQEGVHWYSRLLYQMGTWLLDSNMLHPLGMSVNSS
Auto-proteolysis (processing) of in vitro translated protein (auto-proteolysis): blocked

B2: Hh-C25: 25 kDa Drosophila Hh-C fragment, residues Cys-258 to Asp-471 (protein)
chain: CFTPESTALLESGVRKPLGELSIGDRVLSMTANGQAVYSEVILFMDRNLEQMQNFVQLHTDGGAVLTVTPAHLVSVWQPESQKLTFVFADRIEEKNQVLVRDVETGELRPQRVVKVGSVRSKGVVAPLTREGTIVVNSVAASCYAVINSQSLAHWGLAPMRLLSTLEAWLPAKEQLHSSPKVVSSAQQQNGIHWYANALYKVKDYVLPQSWRHD
Solubility [2]: poorly soluble in the absence of detergents
Stability to proteolysis [2]: susceptible to further proteolytic breakdown when concentrated to 1 mg/ml or greater

B3: noggin: independent neural inducer (protein, UniProt P49011 20-222, looked up)
Noggin: RIDQGGCQHYLHIRPAPSENLPLVDLIEHPDPIYDPKEKDLNETLLRTLMVGHFDPNFMATILPEERLGVEDLGELDLLLRQKPSGAMPAEIKGLEFYEGLQSKKHRLSKKLRRKLQMWLWSQTFCPVLYTWNDLGTRFWPRYVKVGSCYSKRSCSVPEGMVCKAAKSMHLTILRWRCQRRVQQKCAWITIQYPVISECKCSC
Induction of general neural gene NCAM [3]: induces the general neural gene, NCAM
Induction of pituitary gene XANF1B [3]: able to induce pituitary gene and forebrain gene

Inhibition of auto-proteolysis of in-vitro translated Hh protein [1]: do not block
B4: soybean trypsin inhibitor: proteinase inhibitor (protein, UniProt P01070 25-205, looked up)
Trypsin inhibitor A: DFVLDNEGNPLENGGTYYILSDITAFGGIRAAPTGNERCPLTVVQSRNELDKGIGTIISSPYRIRFIAEGHPLSLKFDSFAVIMLCVGIPTEWSVVEDLPEGPAVKIGENKDAMDGWFRLERVSDDEFNNYKLVFCPQQAEDDKCGDIGISIDHDDGTRRLVVSKNKPLVVQFQKLDKESL

B5: H273A: zebrafish twhh protein with H273A mutation (protein, UniProt Q90419 27-416, looked up, variant H273A)
Tiggy-winkle hedgehog protein: CGPGRGYGKRRHPKKLTPLAYKQFIPNVAEKTLGASGKYEGKITRNSERFKELIPNYNPDIIFKDEENTNADRLMTKRCKDKLNSLAISVMNHWPGVKLRVTEGWDEDGHHLEESLHYEGRAVDITTSDRDKSKYGMLSRLAVEAGFDWVYYESKAHIHCSVKAENSVAAKSGGCFPGSGTVTLGDGTRKPIKDLKVGDRVLAADEKGNVLISDFIMFIDHDPTTRRQFIVIETSEPFTKLTLTAAALVFVGNSSAASGITATFASNVKPGDTVLVWEDTCESLKSVTVKRIYTEEHEGSFAPVTAHGTIIVDQVLASCYAVIENHKWAHWAFAPVRLCHKLMTWLFPARESNVNFQEDGIHWYSNMLFHIGSWLLDRDSFHPLGILHLS
Auto-proteolysis (processing) of in vitro translated protein (auto-proteolysis): blocked

B6: activin: recombinant human activin A, transforming growth factor beta family member (protein, UniProt P08476 311-426, looked up)
Inhibin beta A chain: GLECDGKVNICCKKQFFVSFKDIGWNDWIIAPSGYHANYCEGECPSHIAGTSGSSLSFHSTVINHYRMRGHSPFANLKSCCVPTKLRPMSMLYYDDGQNIIKKDIQNMIVEECGCS
Induction of pituitary gene XANF1B [3]: also express the pituitary gene
